According to the supplement of paper PMC12764529:
± gives the half width of the 95% confidence interval.

Test: folding stability dG unfold from chymotrypsin proteolysis; higher = more stable
Method in brief: (§1)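 Unfolding free energy was derived, per protease or combined, against a sequence-predicted unfolded-state K50 and a shared folded-state K50, starting from K50 inferred by Bayesian fitting of sequencing counts. Digestion with trypsin and chymotrypsin was carried out on designed mini-proteins under 80 residues without cysteine in a PA-tagged cDNA display construct. Only designs with AlphaFold2 dimer inter-PAE above 15 were kept.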

| Sequence | folding stability dG unfold |
| --- | --- |
| SAGIKPGDPVVIKFNVPPELREKIKEAFEKPGYEYEFHPETGEVTVVAPAENIDELMKLPYIEEIVPGSAGG [r19_212_TrMRF] | 0.768 ± 0.1 kcal/mol |
| SAGGSAKFKIVKIEKIEIEENGTIKIKVKLEDGSTFEIEIKVKIIPPPKPKKISLEELSEEERKKLSAGGSA [r15_41_TrROS_Hall] | 2.11 ± 0.097 kcal/mol |
| SAGGSAGGSAGKPKVYVKPIVKKGDYVLYLSYYPEEKKIELWVDKFGDKPKRFVKEYPLESAGGSAGGSAGG [r11_738_TrMRF] | 1.25 ± 0.07 kcal/mol |
| SAGAQPIKLKLVDPNGWEIDDIEIEYSPNGMYMIGIENPDNGRPMHIQYNPDDGKIEIRWPNGKLFEIESAG [r5_809_TrROS] | 0.902 ± 0.13 kcal/mol |
| SAGGMKIKDFEPVRVDENGMYVIDLKYEDPDNGNEYQVEFMIPNPPGNMHPITFTMKSPEDALDEILKSAGG [r13_26_TrROS] | -0.325 ± 0.28 kcal/mol |
| SAGGSAGGSAGGMTVERDPEKPVVTVTITDPSGASIVVEIPYETEEEAEAAVKKVIEELASAGGSAGGSAGG [r7_756_JUSTAS] | 1.53 ± 0.07 kcal/mol |
| SAGGSAGGSAGSISRTATPDGYLYTFTDSSGKTHTIPSPVPGMPLSEVAERARAAGFSTVESSAGGSAGGSA [r18_83_JUSTAS] | 0.968 ± 0.065 kcal/mol |
| SAGGPEVVLTVTVKVPPEMTPEEVAQRLADELRKKYPDLKVEVVSVEYDEETKEVTVTIRVTYAPPPSAGGS [r8_26_TrROS_Hall] | 4.05 ± 0.16 kcal/mol |
| SAGGSAGGSAGMIVFTLPDGGLALVLNIEYELEPDEDGNLIIRPRISLSIFPVPADFPILSAGGSAGGSAGG [r17_480_TrMRF] | 4.51 ± 0.068 kcal/mol |
| SAGGSAGGSAGKKKLVIEQRPDGLVRIRLPNGKVLEVSREELEELAKELGIDKVEIYPVPSAGGSAGGSAGG [r11_312_TrROS_Hall] | 2.067 ± 0.019 kcal/mol |
| SAGGSKPTVTLELYIEVPEEELSEEEIKKLLEELAKELNLEVEVTVEVEEKDGKLIVKVTVTIKKPSAGGSA [r2_172_TrROS_Hall] | 2.28 ± 0.14 kcal/mol |
| SAGGSAGGSAGGGLASEPVEIVEILSVTLVPEANVEVVTVKLPNPGELVTVPASAVPPGLSAGGSAGGSAGG [r7_304_JUSTAS] | 1.16 ± 0.048 kcal/mol |
| SAGGSAGGSADPSVKPPVIKRLVIDIPLEELEKLFPGKLEKAVELAEEAVKLGFDEVVILGGSAGGSAGGSA [r18_441_TrMRF] | 1.12 ± 0.023 kcal/mol |
| SAGGSAMYEVRIKIKKDGKEVEIELSLEELEELLESPELREELEIVEIEVRPLPPEELSEEELKALSAGGSA [r15_460_TrROS_Hall] | 0.836 ± 0.045 kcal/mol |
| SAGGSAGGSAGGKPTITITVELEDGYKATFEYNEETDKITVKIFNKNGELVEEFEFEIKSAGGSAGGSAGGS [r10_1044_TrROS_Hall] | 3.24 ± 0.21 kcal/mol |
| SADKVEIEFPMPESGHPFRIVIDKDGKVEIRHPNNGEEYEFKINGKPIRFPPNMSWDDAIDQLKDALKKSAG [r14_561_TrROS] | 0.645 ± 0.2 kcal/mol |
| SMEVYTEETEEKSPTPLRRRTTTTTVVTRDGSRTVVTVETRVELEPVPPVPPRPLPPIYTPENREVNILLSA [r9_965_JUSTAS] | 0.51 ± 0.81 kcal/mol |
| SAGGSAGGSASIPELAEELGLPAEVEVTEDVEPEKPVVYPVVVREPGGGEVRVVPVVLPPGVSAGGSAGGSA [r18_313_JUSTAS] | 1.36 ± 0.043 kcal/mol |
| SAGGSAGGSAGGSVVPTTSYSPDGTLTLTTETVTPSSNGLTVTSSTTVRPLPTPASPAASAGGSAGGSAGGS [r10_1200_JUSTAS] | 1.01 ± 0.039 kcal/mol |
| SAGGSAGGSAGNIMILNKDGKIIAEIKIEEKYEIDKDGKIKKTKKIEIKIVPVPPGEKIKSAGGSAGGSAGG [r17_480_TrROS_Hall] | 1.94 ± 0.11 kcal/mol |
| SAGGSAGGSAGAEELAKALAEELNVEVEVEVVEVEEPEVEVTEERRLPPAPEEVTIEEDESAGGSAGGSAGG [r11_753_TrROS_Hall] | 1.32 ± 0.092 kcal/mol |

| Sequence | folding stability dG unfold |
| --- | --- |
| SAGGMTFETETITLEFPPEDEEEIRKRAEEIAEKLKKEYEKKGYKVEVEFSYDPETGVLTITIKFEKKSAGG [r13_755_JUSTAS] | 4.19 ± 0.067 kcal/mol |
| SAGGSAGGSAGGKEYEVIEVEVNMTIEELKKLFPNVVEIKVEKNENGELKVTIIIKKDKSAGGSAGGSAGGS [r10_764_TrROS_Hall] | 2.5 ± 0.11 kcal/mol |
| SAGGSAGGSFRIDPEKIEKVKHHRNPNGGGYHTIRLPGGPVKIPFRGMDPGDMEDQVKNFLKNSAGGSAGGS [r12_585_TrROS] | 0.267 ± 0.19 kcal/mol |
| SAGGSAGGSMKTVEITIPFYSTTTDPVPSLGLLKTYLEEPEIKLKISPEEYKKLKKTPILKELSAGGSAGGS [r12_1015_JUSTAS] | 0.412 ± 0.26 kcal/mol |
| SAGGSAGGSAGMSVRVIEGDPALAKKFIEEHPDEIVSVEVTPHPETGTYTYVFVFKGPPKSAGGSAGGSAGG [r17_79_TrMRF] | 2.44 ± 0.041 kcal/mol |
| SAGKKKTLTLTLGNVTITITYDEDTGTLRIKVTATVTTVTLDKDTKELTTEKKTVTTEIEIPLAPGATLSAG [r5_195_TrROS_Hall] | 2.79 ± 0.086 kcal/mol |
| SAGKKTLIIRVKIRVRRKVDGKEEEVELELVIEVEAEEDEEEARRKAEELARKLAEEYNLEIEEVEIFPSAG [r5_497_TrROS_Hall] | 4.31 ± 0.074 kcal/mol |
| SAGGSAGGSEKEIEIELPEGAEIVEIDEEKGVITVRVNGKLIEIEIKPVKVEKVEVELPPEEESAGGSAGGS [r12_243_TrROS_Hall] | 1.73 ± 0.13 kcal/mol |
| SAGGSAGMVSLTTTTTPVETRTLPDGTVVTLEKTELPDDTVVLTTTTTDPATGEVTTETTTVSLAGSAGGSA [r15_401_JUSTAS] | 1.11 ± 0.022 kcal/mol |
| SAGKEKKPPKKVTLTLEIEIEVPEEEEEKAKELAEELEEELRKLGIEKVEVEYDKETKRVRIRVTVVLPSAG [r5_512_TrROS_Hall] | 3.01 ± 0.094 kcal/mol |
| SAGTIRIVVPAEELSDEEIEALAEELRKLFPNAKIVRVERRVETLPDGRKRTYVVLEIHIELPPPPEEESAG [r5_835_TrROS_Hall] | 4.33 ± 0.12 kcal/mol |
| SAGGSAGGSAGGMVLVETEPLPDGGYRVLVVFPGTDEVRELYFSSSTTPEQVLDVVLAESAGGSAGGSAGGS [r10_825_TrMRF] | 2.233 ± 0.021 kcal/mol |
| PPLKIKMERYPNGMMKIDKIEVPNDGSIKLTLKFPNNGRKIERTIPPNAPPGQEKEIWFPFPNGFYRLKIES [r1_43_TrROS] | 0.291 ± 0.26 kcal/mol |
| SAGGSAGGSAGGDLLRDLPGLELRIETVTVTERYFDEDGELVEEREETVTRIELRRPGEESAGGSAGGSAGG [r7_614_TrROS_Hall] | 2.15 ± 0.1 kcal/mol |
| SAGGSAGGSAGGMEFELEDGGYVKVELELSEDGELVARVEFFNENGEPVAEIEVPLEEILSAGGSAGGSAGG [r7_660_TrMRF] | 1.76 ± 0.062 kcal/mol |
| SAGGSAGGMRYVTVTVTVPSNGKKYTYTKEIAPDEVFNISEAELAAEFGYPDVVVTVSESPIEDSAGGSAGG [r6_722_JUSTAS] | 3.39 ± 0.022 kcal/mol |
| SAGGSAKIKIITENGEELEIEVETKEELEKAVEALKKLLPPDAEIEVEVVEKDGKLIVKIKVKKKPSAGGSA [r15_80_TrROS_Hall] | 2.17 ± 0.12 kcal/mol |
| SAGVPLSSVPESEVAEEVEFPKHGLKLLRDTATGKWYLQEGDTATVIPPEEAAKLLAEIKAPKPSPELLSAG [r14_516_JUSTAS] | 1.01 ± 0.083 kcal/mol |
| SAEPPWYWIIKIEFPNGKPIVFMMDDPEEARERFEEKLRKEFPDGMKIESIPITPNDMDSPEEALERIKSAG [r14_900_TrROS] | 1.62 ± 0.16 kcal/mol |
| SAGGSSMTTKTINLSLPNGVEELTITITTPPDGTYNATFYFPKTGKKTTHNFTSEEEIEKFIEELIKESAGG [r13_857_JUSTAS] | 4.291 ± 0.036 kcal/mol |

Test: folding stability dG unfold from trypsin proteolysis; higher = more stable
Method in brief: as §1

| Sequence | folding stability dG unfold |
| --- | --- |
| SAGIKPGDPVVIKFNVPPELREKIKEAFEKPGYEYEFHPETGEVTVVAPAENIDELMKLPYIEEIVPGSAGG [r19_212_TrMRF] | 0.891 ± 0.052 kcal/mol |
| SAGGSAKFKIVKIEKIEIEENGTIKIKVKLEDGSTFEIEIKVKIIPPPKPKKISLEELSEEERKKLSAGGSA [r15_41_TrROS_Hall] | 1.29 ± 0.053 kcal/mol |
| SAGGSAGGSAGKPKVYVKPIVKKGDYVLYLSYYPEEKKIELWVDKFGDKPKRFVKEYPLESAGGSAGGSAGG [r11_738_TrMRF] | 0.866 ± 0.043 kcal/mol |
| SAGAQPIKLKLVDPNGWEIDDIEIEYSPNGMYMIGIENPDNGRPMHIQYNPDDGKIEIRWPNGKLFEIESAG [r5_809_TrROS] | 0.713 ± 0.041 kcal/mol |
| SAGGMKIKDFEPVRVDENGMYVIDLKYEDPDNGNEYQVEFMIPNPPGNMHPITFTMKSPEDALDEILKSAGG [r13_26_TrROS] | -0.845 ± 0.27 kcal/mol |
| SAGGSAGGSAGGMTVERDPEKPVVTVTITDPSGASIVVEIPYETEEEAEAAVKKVIEELASAGGSAGGSAGG [r7_756_JUSTAS] | 2.11 ± 0.091 kcal/mol |
| SAGGSAGGSAGSISRTATPDGYLYTFTDSSGKTHTIPSPVPGMPLSEVAERARAAGFSTVESSAGGSAGGSA [r18_83_JUSTAS] | -0.188 ± 0.12 kcal/mol |
| SAGGPEVVLTVTVKVPPEMTPEEVAQRLADELRKKYPDLKVEVVSVEYDEETKEVTVTIRVTYAPPPSAGGS [r8_26_TrROS_Hall] | 4.97 ± 0.64 kcal/mol |
| SAGGSAGGSAGMIVFTLPDGGLALVLNIEYELEPDEDGNLIIRPRISLSIFPVPADFPILSAGGSAGGSAGG [r17_480_TrMRF] | 3.2 ± 0.09 kcal/mol |
| SAGGSAGGSAGKKKLVIEQRPDGLVRIRLPNGKVLEVSREELEELAKELGIDKVEIYPVPSAGGSAGGSAGG [r11_312_TrROS_Hall] | 1.58 ± 0.025 kcal/mol |
| SAGGSKPTVTLELYIEVPEEELSEEEIKKLLEELAKELNLEVEVTVEVEEKDGKLIVKVTVTIKKPSAGGSA [r2_172_TrROS_Hall] | 2.15 ± 0.19 kcal/mol |
| SAGGSAGGSAGGGLASEPVEIVEILSVTLVPEANVEVVTVKLPNPGELVTVPASAVPPGLSAGGSAGGSAGG [r7_304_JUSTAS] | 2.07 ± 0.13 kcal/mol |
| SAGGSAGGSADPSVKPPVIKRLVIDIPLEELEKLFPGKLEKAVELAEEAVKLGFDEVVILGGSAGGSAGGSA [r18_441_TrMRF] | 0.116 ± 0.031 kcal/mol |
| SAGGSAMYEVRIKIKKDGKEVEIELSLEELEELLESPELREELEIVEIEVRPLPPEELSEEELKALSAGGSA [r15_460_TrROS_Hall] | 1.18 ± 0.028 kcal/mol |
| SAGGSAGGSAGGKPTITITVELEDGYKATFEYNEETDKITVKIFNKNGELVEEFEFEIKSAGGSAGGSAGGS [r10_1044_TrROS_Hall] | 1.81 ± 0.12 kcal/mol |
| SADKVEIEFPMPESGHPFRIVIDKDGKVEIRHPNNGEEYEFKINGKPIRFPPNMSWDDAIDQLKDALKKSAG [r14_561_TrROS] | 0.905 ± 0.075 kcal/mol |
| SMEVYTEETEEKSPTPLRRRTTTTTVVTRDGSRTVVTVETRVELEPVPPVPPRPLPPIYTPENREVNILLSA [r9_965_JUSTAS] | 1.54 ± 0.17 kcal/mol |
| SAGGSAGGSASIPELAEELGLPAEVEVTEDVEPEKPVVYPVVVREPGGGEVRVVPVVLPPGVSAGGSAGGSA [r18_313_JUSTAS] | -0.223 ± 0.14 kcal/mol |
| SAGGSAGGSAGGSVVPTTSYSPDGTLTLTTETVTPSSNGLTVTSSTTVRPLPTPASPAASAGGSAGGSAGGS [r10_1200_JUSTAS] | 1.35 ± 0.18 kcal/mol |
| SAGGSAGGSAGNIMILNKDGKIIAEIKIEEKYEIDKDGKIKKTKKIEIKIVPVPPGEKIKSAGGSAGGSAGG [r17_480_TrROS_Hall] | 0.867 ± 0.056 kcal/mol |
